Molecular target: Drosophila protamine B (Prot B), untagged recombinant (Drosophila)
Assay: non-reducing SDS-PAGE of disulfide-linked oligomers

- stoichiometry N: 2
Substance: Drosophila protamine B (Prot B), untagged recombinant (natural protein)
